Experimental data published in the supplement of paper PMC10567573.

B1: ALDH8A1 (parent)
chain: WSSRSPQERSRVLNQVADLLEQSL
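Also: lentivirally expressed fusions sorted by FACS into six bins by GFP to DsRed ratio, PSI derived from sequencing read proportions per bin multiplied by bin number.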

Variants of: B1
Experiment: protein stability index of a GFP-peptide fusion (GPS, HEK-293T) (PSI 1-6); higher = more stable
Conditions: c terminus: a fixed tail appended
WSSRRPQERSRVLNQVADLLEQSL [S5R] showed a protein stability index of 2.87.
For WSSRMPQERSRVLNQVADLLEQSL [S5M], the protein stability index was 2.54.
With WSSRNPQERSRVLNQVADLLEQSL [S5N] the protein stability index was 2.43.
With WSSRLPQERSRVLNQVADLLEQSL [S5L] the protein stability index was 2.74.
Variant WSSRIPQERSRVLNQVADLLEQSL [S5I] has a protein stability index of 2.4.
For WSSRTPQERSRVLNQVADLLEQSL [S5T], the protein stability index was 2.57.
With WSSRKPQERSRVLNQVADLLEQSL [S5K] the protein stability index was 2.52.
WSSRDPQERSRVLNQVADLLEQSL [S5D] gave a protein stability index of 2.85.
In the case of WSSRCPQERSRVLNQVADLLEQSL [S5C], the protein stability index is reported as 2.56.
Variant WSSREPQERSRVLNQVADLLEQSL [S5E] has a protein stability index of 2.88.
For WSSRSPQERSRVGNQVADLLEQSL [L13G], the protein stability index was 3.46.
Work on WSSRSPQERSRVCNQVADLLEQSL [L13C] yielded a protein stability index of 3.11.
With WSSRSPQERSRVKNQVADLLEQSL [L13K] the protein stability index was 3.53.
WSSRSPQERSRVMNQVADLLEQSL [L13M] gave a protein stability index of 2.63.
With WSSRSPQERSRVQNQVADLLEQSL [L13Q] the protein stability index was 3.85.
WSSRSPQERSRVVNQVADLLEQSL [L13V] showed a protein stability index of 3.13.
For WSSRSPQERSRVINQVADLLEQSL [L13I], the protein stability index was 3.06.
With WSSRSPQERSRVANQVADLLEQSL [L13A] the protein stability index was 2.59.
With WSSRSPQERSRVFNQVADLLEQSL [L13F] the protein stability index was 2.4.
Variant WSSRSPQERSRVNNQVADLLEQSL [L13N] has a protein stability index of 3.54.
Variant WSSRSPQERSRVLNQVADLYEQSL [L20Y] has a protein stability index of 3.37.
For WSSRSPQERSRVLNQVADLNEQSL [L20N], the protein stability index was 4.14.
Work on WSSRSPQERSRVLNQVADLHEQSL [L20H] yielded a protein stability index of 3.86.
Variant WSSRSPQERSRVLNQVADLPEQSL [L20P] has a protein stability index of 4.33.
In the case of WSSRSPQERSRVLNQVADLVEQSL [L20V], the protein stability index is reported as 3.03.
Work on WSSRSPQERYRVLNQVADLLEQSL [S10Y] yielded a protein stability index of 2.37.
In the case of WSSRSPQERGRVLNQVADLLEQSL [S10G], the protein stability index is reported as 3.8.
For WSSRSPQERRRVLNQVADLLEQSL [S10R], the protein stability index was 2.95.
WSSRSPQEPSRVLNQVADLLEQSL [R9P] showed a protein stability index of 3.37.
In the case of WSSRSPQEFSRVLNQVADLLEQSL [R9F], the protein stability index is reported as 2.56.
In the case of WSSRSPQEASRVLNQVADLLEQSL [R9A], the protein stability index is reported as 2.59.
With WSSRSPQELSRVLNQVADLLEQSL [R9L] the protein stability index was 2.48.
Variant WSSRSPQWRSRVLNQVADLLEQSL [E8W] has a protein stability index of 2.36.
Work on WSSRSPQNRSRVLNQVADLLEQSL [E8N] yielded a protein stability index of 2.23.
For WSSRSPQYRSRVLNQVADLLEQSL [E8Y], the protein stability index was 2.71.
For WSSRSPQPRSRVLNQVADLLEQSL [E8P], the protein stability index was 2.51.
Variant WSSRSPQKRSRVLNQVADLLEQSL [E8K] has a protein stability index of 2.04.
Variant WSSRSPQARSRVLNQVADLLEQSL [E8A] has a protein stability index of 2.31.
WSSRSPQDRSRVLNQVADLLEQSL [E8D] showed a protein stability index of 2.87.
WSSRSPQGRSRVLNQVADLLEQSL [E8G] showed a protein stability index of 2.17.
WYSRSPQERSRVLNQVADLLEQSL [S2Y] gave a protein stability index of 2.65.
With WTSRSPQERSRVLNQVADLLEQSL [S2T] the protein stability index was 2.46.
Work on WCSRSPQERSRVLNQVADLLEQSL [S2C] yielded a protein stability index of 1.87.
With WASRSPQERSRVLNQVADLLEQSL [S2A] the protein stability index was 1.99.
WISRSPQERSRVLNQVADLLEQSL [S2I] gave a protein stability index of 1.78.
WFSRSPQERSRVLNQVADLLEQSL [S2F] gave a protein stability index of 2.81.
Work on WWSRSPQERSRVLNQVADLLEQSL [S2W] yielded a protein stability index of 1.92.
With WDSRSPQERSRVLNQVADLLEQSL [S2D] the protein stability index was 2.8.
For WNSRSPQERSRVLNQVADLLEQSL [S2N], the protein stability index was 2.78.
With WSSRSPQERSTVLNQVADLLEQSL [R11T] the protein stability index was 2.48.
WSSRSPQERSYVLNQVADLLEQSL [R11Y] showed a protein stability index of 2.22.
For WSSRSPQERSSVLNQVADLLEQSL [R11S], the protein stability index was 2.74.
In the case of WSSRSPQERSIVLNQVADLLEQSL [R11I], the protein stability index is reported as 2.21.
Work on WSSRSPQERSRVLNQVAFLLEQSL [D18F] yielded a protein stability index of 1.48.
WSSRSPQERSRVLNQVACLLEQSL [D18C] gave a protein stability index of 2.03.
In the case of WSSRSPQERSRVLNQVAYLLEQSL [D18Y], the protein stability index is reported as 1.81.
WSSRSPQERSRVLNQVARLLEQSL [D18R] showed a protein stability index of 2.34.
Work on WSSRSPQERSRVLNQVASLLEQSL [D18S] yielded a protein stability index of 2.23.
Variant WSSRSPQERSRVLNQVAGLLEQSL [D18G] has a protein stability index of 2.76.
In the case of WSSRSPQERSRVLNQVANLLEQSL [D18N], the protein stability index is reported as 2.22.
Variant WSSRSPQERSRVLNQVAKLLEQSL [D18K] has a protein stability index of 1.47.
With WSSRSPQERSRVLNQVAALLEQSL [D18A] the protein stability index was 1.98.
For WSSRSPQERSRVLNQVAILLEQSL [D18I], the protein stability index was 1.76.
WSSRSPQERSRVLNQVATLLEQSL [D18T] gave a protein stability index of 2.02.
WSSRSPQERSRVLNQVADMLEQSL [L19M] gave a protein stability index of 2.52.
With WSSRSPQERSRVLNQVADALEQSL [L19A] the protein stability index was 3.18.
For WSSRSPQERSRVLNQVADILEQSL [L19I], the protein stability index was 2.31.
Variant WSSRSPQERSRVLNQVADWLEQSL [L19W] has a protein stability index of 2.24.
With WSSRSPQERSRVLNQVADVLEQSL [L19V] the protein stability index was 3.07.
In the case of WSSRSPQERSRVLNQVADPLEQSL [L19P], the protein stability index is reported as 4.63.
Work on WSSRSPQERSRVLNQVADSLEQSL [L19S] yielded a protein stability index of 4.14.
WSSRSPQERSRVLNQVADKLEQSL [L19K] showed a protein stability index of 3.79.
Variant WSSRSPQERSRVLNDVADLLEQSL [Q15D] has a protein stability index of 3.31.
Work on WSSRSPQERSRVLNEVADLLEQSL [Q15E] yielded a protein stability index of 3.03.
For WSSRSPQERSRVLNKVADLLEQSL [Q15K], the protein stability index was 2.13.
Variant WSSRSPQERSRVLNNVADLLEQSL [Q15N] has a protein stability index of 3.22.
WSSRSPQERSRVLNFVADLLEQSL [Q15F] gave a protein stability index of 1.54.
For WSSRSPQERSRVLNSVADLLEQSL [Q15S], the protein stability index was 2.74.
WSARSPQERSRVLNQVADLLEQSL [S3A] showed a protein stability index of 1.98.
With WSVRSPQERSRVLNQVADLLEQSL [S3V] the protein stability index was 2.78.
Work on WSDRSPQERSRVLNQVADLLEQSL [S3D] yielded a protein stability index of 2.77.
WSWRSPQERSRVLNQVADLLEQSL [S3W] showed a protein stability index of 1.8.
With WSHRSPQERSRVLNQVADLLEQSL [S3H] the protein stability index was 2.52.
With WSNRSPQERSRVLNQVADLLEQSL [S3N] the protein stability index was 2.35.
Work on WSYRSPQERSRVLNQVADLLEQSL [S3Y] yielded a protein stability index of 2.25.
For WSKRSPQERSRVLNQVADLLEQSL [S3K], the protein stability index was 2.53.
In the case of WSSRSPQERSRVLNQVADLLEQVL [S23V], the protein stability index is reported as 2.09.
Variant WSSRSPQERSRVLNQVADLLEQEL [S23E] has a protein stability index of 3.39.
Work on WSSRSPQERSRVLNQVADLLEQWL [S23W] yielded a protein stability index of 1.94.
Variant WSSRSPQERSRVLNQVADLLEQRL [S23R] has a protein stability index of 3.64.
For WSSRSPQERSRVLNQVADLLEQDL [S23D], the protein stability index was 4.17.
Work on WSSRSPQERSRVLNQVADLLEQKL [S23K] yielded a protein stability index of 3.53.
Variant WSSRSPQERSRVLNQVADLLEQPL [S23P] has a protein stability index of 3.15.
WSSRSPQERSRVLNQVADLLEQCL [S23C] gave a protein stability index of 1.96.
